This passage reports Kd, EC50 and IC50 results from US20220031842A1 (JIANGSU HENGRUI MEDICINE, published 2022).

The target in experiment [1] is T1, LAG-3 extracellular domain with a Flag tag (human, UniProt P18627 23-434).
T1 construct: also called LAG-3-Flag; LAG-3-Flag antigen
T1 sequence: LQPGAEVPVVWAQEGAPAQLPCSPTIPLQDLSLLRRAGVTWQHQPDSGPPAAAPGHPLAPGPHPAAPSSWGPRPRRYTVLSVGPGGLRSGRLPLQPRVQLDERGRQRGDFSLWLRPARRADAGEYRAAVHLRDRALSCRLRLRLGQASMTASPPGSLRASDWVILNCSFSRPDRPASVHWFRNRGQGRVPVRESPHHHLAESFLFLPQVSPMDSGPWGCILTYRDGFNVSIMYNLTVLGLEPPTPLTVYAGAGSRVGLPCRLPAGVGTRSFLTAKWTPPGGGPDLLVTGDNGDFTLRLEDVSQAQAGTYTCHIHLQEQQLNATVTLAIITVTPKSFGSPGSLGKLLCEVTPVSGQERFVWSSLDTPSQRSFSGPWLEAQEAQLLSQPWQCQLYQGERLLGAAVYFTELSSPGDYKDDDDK
Briefly: SPR (Biacore), antibody captured on anti-human capture chip, LAG-3-Flag in flow. From the text:
2. […] Then, the LAG-3-Flag antigen (produced in-house, SEQ ID NO:1) was flowed through the surface of the biochip, and the reaction signal was detected real time using a Biacore instrument to obtain the binding and dissociation curves, the value of affinity was obtained by fitting, see table 10 below. After each cycle of dissociation was finished in the experiment, the biochip was washed and regenerated with a regeneration solution provided in the human anti-capture kit.

Experiment [2] concerns the target T2, Full length of LAG-3 (human LAG-3 over-expressed on CHO-S cells) (human, UniProt P18627 23-525).
T2 construct: also called LAG-3 over-expressing CHO-S cells; full-length LAG-3
T2 sequence: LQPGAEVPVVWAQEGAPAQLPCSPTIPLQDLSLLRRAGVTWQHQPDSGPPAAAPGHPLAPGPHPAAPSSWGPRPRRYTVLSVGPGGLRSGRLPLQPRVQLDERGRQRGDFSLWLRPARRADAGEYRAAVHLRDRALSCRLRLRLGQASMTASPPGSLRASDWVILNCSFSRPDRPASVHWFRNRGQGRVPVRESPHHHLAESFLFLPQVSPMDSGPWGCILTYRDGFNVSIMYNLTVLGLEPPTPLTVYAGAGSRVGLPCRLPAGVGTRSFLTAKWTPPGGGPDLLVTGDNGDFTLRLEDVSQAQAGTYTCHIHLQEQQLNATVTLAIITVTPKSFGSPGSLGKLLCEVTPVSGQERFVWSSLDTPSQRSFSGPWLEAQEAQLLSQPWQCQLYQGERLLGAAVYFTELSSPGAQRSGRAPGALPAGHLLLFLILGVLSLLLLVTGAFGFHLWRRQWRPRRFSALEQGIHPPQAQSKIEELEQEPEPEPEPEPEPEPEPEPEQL
The experiment is described as follows: cell ELISA on fixed CHO-S cells overexpressing full-length human LAG-3. The procedure:
100 μl/well of cells were seeded into 96-well plate at a density of 4×10⁵/ml and incubated overnight. The supernatant was discarded, and the plate was washed three times with PBS, and was fixed with 4% PFA (100 μl/well) for half an hour at room temperature, and then the plate was washed three times with PBS. After discarding the liquid, the plate was blocked with 200 μl/well of blocking solution containing 5% skim milk (Bright Dairy, skim milk powder) diluted in PBS, and incubated at 37° C. for 2.5 hours. After blocking, the blocking solution was discarded and the plate was washed 5 times with PBST buffer (PH7.4 PBS containing 0.05% tween-20), added with 50 μl/well of various concentrations of antibodies to be tested (Hybridoma purified antibody or humanized antibody) which have been diluted with sample diluent, and then incubated in incubator at 37° C. for 1 h. The plate was washed 5 times with PBST after incubation, added with 100 μl/well of goat anti-mouse (Jackson Immuno Research, Cat No. 115-035-003) or goat anti-human secondary antibody (Jackson Immuno Research, Cat No. 109-035-003) labeled with HRP, diluted in sample diluent, and the plate was incubated at 37° C. for 1 h. […]

In experiment [3] the target is T3, Fusion protein of LAG-3 extracellular region and hIgG1 Fc (human).
T3 construct: Limits of the signal peptide are marked only by lost underlining; also called LAG-3-Fc; LAG-3-Fc fusion protein
The experiment is described as follows: competition: biotin-LAG-3-Fc binding to fixed Daudi cells, antibody titrated. The procedure:
Daudi cells (human leukemia cells, purchased from the cell bank in Chinese Academy of Sciences) were seeded in 96-well plate with a density of 3×10⁵/well. After centrifugation at 1000 rpm, the supernatant was discarded and then the plate was fixed with 4% PFA for 30 min at room temperature. The plate was washed 4 times with PBS after discarding the fixed solution, and the plate was blocked with 200 μl/well of blocking solution containing 5% skim milk (Bright Dairy, skim milk powder) diluted in PBS, and incubated at 37° C. for 2.5 hours. After blocking, the blocking solution was discarded and the plate was washed 5 times with PBST buffer (pH7.4 PBS containing 0.05% tween-20), added with 50 μl/well mixture of biotin-labeled (Biotin labeling kit, Dojindo Chemical, Cat No. LK03) LAG-3-Fc fusion protein (produced in-house, SEQ ID NO: 3) and gradient concentrations of the antibody to be tested, wherein the biotin-labeled LAG-3-Fc fusion protein has been diluted with sample diluent (PH7.4 PBS containing 1% BSA) at a final concentration of 0.4 μg/ml, and pre-mixed for an hour, then the plate was incubated at 37° C. for 1 h. […] The OD value at a wavelength of 450 nm was read on NOVOStar microplate reader, and then the activity of the LAG-3 antibody in blocking the binding of the antigen to Daudi cells was calculated.

B1: mAb229 (antibody, V domains shown)
VH: QIQLVQSGPELKKPGETVKISCKASGYTFTTSGMSWVKQAPGKGLKWMGWINTYSGVPTYADDFKGRFAFSLETSASTAYLQINNLKNEDTATYFCARDNYDARDVYYYAMDYWGQGTSVTVSS
VL: DIQMTQSPASLSVSVGETVTITCRASENIYSNLAWYQQKQGKSPQLLVYAATNLADGVPSRFSGSGSGTQYSLKINSLQSEDFGSYYCQHFWITPWTFGGGTKLEIK
notes: Murine hybridoma antibody; also called LAG-3 antibody mAb229; hybridoma clone mAb229
As usually defined, the Kd is a measure of binding affinity in units of concentration. Usually EC50 stands for the midpoint of the concentration-response curve. A lower EC50 goes with a more potent agent. In general, IC50 refers to the concentration at which inhibition is half-maximal. A lower IC50 goes with greater potency. As to B1, the Kd in experiment [1] turned out to be 0.0172 nM. Moreover, a half-maximal effect in experiment [2] (EC50) was put at 0.191 nM. In experiment [3], the IC50 came to 1.33 nM.

B2: mAb303 (antibody, V domains shown)
VH: EVQLQQSGPVLVKPGASVKMSCKASGYTLTDYYMNWVKQSHGKSLEWIGVINPYNGDTAYNQKFKGKATLTVDKSSNTAYMEINSLTSEDSAVYYCTRDDGYYDYYFDVWGTGTTVTVSS
VL: DIQMTQSPSSLSASLGERVILTCRASQDIGSRLNWLQQGPDGTFKRLIYATSTLDSGVPKRFSGSRSGSDFSLTISSLESEDFVDYYCLQLASSPPTFGGGTKLEIK
notes: Murine hybridoma antibody; also called LAG-3 antibody mAb303; hybridoma clone mAb303
Regarding B2, the affinity in experiment [1], expressed as Kd, was 0.0749 nM. Further, a half-maximal response in experiment [2] (EC50) required 0.279 nM. Besides, the IC50 in experiment [3] worked out at 0.596 nM.
